Test results from doi:10.1101/2020.06.24.169607 (bioRxiv, 2020).

Molecular target: the molecule itself
Assay: differential scanning calorimetry

B1: PSD95-PDZ3 wild type (third PDZ domain of postsynaptic density-95 protein) (domain or fragment)
chain: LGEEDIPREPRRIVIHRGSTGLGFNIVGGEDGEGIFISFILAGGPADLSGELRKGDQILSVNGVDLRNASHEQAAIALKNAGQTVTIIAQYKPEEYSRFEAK
- stoichiometry N: 6
